Test results reported in publication PMC8346855 (Proceedings of the National Academy of Sciences of the …, 2021).

B1: mini-Gq (domain or fragment)
chain: GIEKQLQKDKQVYRATHRLLLLGADNSGKSTIVKQMRILHGGSGGSGGTSGIFETKFQVDKVNFHMFDVGGQRDERRKWIQCFNDVTAIIFVVDSSDYNRLQEALNDFKSIWNNRWLRTISVILFLNKQDLLAEKVLAGKSKIEDYFPEFARYTTPEDATPEPGEDPRVTRAKYFIRDEFLRISTASGDGRHYCYPHFTCAVDTENARRIFNDCKDIILQMNLREYNLV
notes: engineered from mGs (Dm5) by nine mutations on the α5-helix that correspond to residues of Gq; only residues of the α5-helix are those of Gq; also called mGq; source: E. coli, purified (Ni Sepharose, TEV cleavage, reverse Ni-NTA, gel filtration); not shown: His tag, N-terminal, cleaved
B2: mini-Gs (domain or fragment)
chain: GIEKQLQKDKQVYRATHRLLLLGADNSGKSTIVKQMRILHGGSGGSGGTSGIFETKFQVDKVNFHMFDVGGQRDERRKWIQCFNDVTAIIFVVDSSDYNRLQEALNDFKSIWNNRWLRTISVILFLNKQDLLAEKVLAGKSKIEDYFPEFARYTTPEDATPEPGEDPRVTRAKYFIRDEFLRISTASGDGRHYCYPHFTCAVDTENARRIFNDCRDIIQRMHLRQYELL
notes: thermostabilized truncated Gαs with the GTPase domain, lacking the α-helical domain; also called mGs; source: E. coli, purified (Ni Sepharose, TEV cleavage, reverse Ni-NTA, gel filtration); not shown: His tag, N-terminal, cleaved
B3: mini-Gi (domain or fragment)
chain: GIEKQLQKDKQVYRATHRLLLLGADNSGKSTIVKQMRILHGGSGGSGGTSGIFETKFQVDKVNFHMFDVGGQRDERRKWIQCFNDVTAIIFVVDSSDYNRLQEALNDFKSIWNNRWLRTISVILFLNKQDLLAEKVLAGKSKIEDYFPEFARYTTPEDATPEPGEDPRVTRAKYFIRDEFLRISTASGDGRHYCYPHFTCAVDTENARRIFNDVTDIIIKMNLRDCGLF
notes: engineered from mGs (Dm5) by seven mutations on the α5-helix that correspond to residues of Gi; only residues of the α5-helix are those of Gi; also called mGi; source: E. coli, purified (Ni Sepharose, TEV cleavage, reverse Ni-NTA, gel filtration); not shown: His tag, N-terminal, cleaved
B4: mini-Go (domain or fragment)
chain: GIEKNLKEDGISAAKDVKLLLLGADNSGKSTIVKQMKIIHGGSGGSGGTTGIVETHFTFKNLHFRLFDVGGQRSERKKWIHCFEDVTAIIFCVDLSDYNRMHESLMDFDSICNNKFFIDTSIILFLNKKDLFGEKIKKSPLTICFPEYTGPNTYEDAAAYIQAQFESKNRSPNKEIYCHMTCATDTNNAQVIFDAVTDIIIANNLRGCGLY
notes: thermostabilized truncated form of the Gαo subunit with the GTPase domain, lacking the α-helical domain; also called mGo; source: E. coli, purified (Ni Sepharose, TEV cleavage, reverse Ni-NTA, gel filtration); not shown: His tag, N-terminal, cleaved
B5: nanobody 80 (VHH)
VHH: QVQLQESGGGLVQAGGSLRLSCAASGSIFSINTMGWYRQAPGKQRELVAAIHSGGSTNYANSVKGRFTISRDNAANTVYLQMNSLKPEDTAVYYCNVKDYGAVLYEYDYWGQGTQVTVSS
notes: nanobody 80; also called Nb80; NB80; not shown: His6, C-terminal, kept
B6: nanobody 80 (VHH)
VHH: QVQLQESGGGLVQAGGSLRLSCAASGSIFSINTMGWYRQAPGKQRELVAAIHSGGSTNYANSVKGRFTISRDNAANTVYLQMNSLKPEDTAVYYCNVKDYGAVLYEYDYWGQGTQVTVSS
notes: also called Nb80; a Gs mimetic nanobody; source: purified
B7: mini-Go truncated by its last five residues (domain or fragment)
chain: GIEKNLKEDGISAAKDVKLLLLGADNSGKSTIVKQMKIIHGGSGGSGGTTGIVETHFTFKNLHFRLFDVGGQRSERKKWIHCFEDVTAIIFCVDLSDYNRMHESLMDFDSICNNKFFIDTSIILFLNKKDLFGEKIKKSPLTICFPEYTGPNTYEDAAAYIQAQFESKNRSPNKEIYCHMTCATDTNNAQVIFDAVTDIIIANNLR
notes: mGo (Dm6) without its last five residues GCGLY; also called mGo_Δ5; source: E. coli, purified (same protocol as the mGα proteins); not shown: His tag, N-terminal, cleaved

Legend:
Conditions in all cases: both partners purified
[1] = biological target: T1, thermostabilized turkey beta-1 adrenergic receptor (turkey); assay: cross-linking + other: high-mass MALDI-MS; isoprenaline-bound β1AR (iso-β1AR), 5 µM, mixed with partner protein at various concentrations, 1 h at room temperature, BS(PEG)9 cross-linking, 0.6 µM β-Gal as internal standard; 20 mM Hepes pH 7.5, 40 mM NaCl, 0.01% LMNG; Ka = 1/Kd
T1 construct: turkey beta-1 adrenergic receptor, thermostabilized, truncated at the C terminus and intracellular loop 3; the states are told apart by the assay; also called β1AR; apo-β1AR
T1 sequence (chain, as listed by the source): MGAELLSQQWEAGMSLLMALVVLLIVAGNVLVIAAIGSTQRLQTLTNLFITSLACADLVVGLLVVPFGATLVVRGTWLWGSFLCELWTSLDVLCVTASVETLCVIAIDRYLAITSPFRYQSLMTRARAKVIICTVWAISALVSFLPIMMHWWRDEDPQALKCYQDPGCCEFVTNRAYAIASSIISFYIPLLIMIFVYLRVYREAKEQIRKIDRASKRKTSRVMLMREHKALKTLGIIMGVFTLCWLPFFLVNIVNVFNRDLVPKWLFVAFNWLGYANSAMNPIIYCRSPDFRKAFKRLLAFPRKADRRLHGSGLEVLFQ

[2] = biological target: T1, thermostabilized turkey beta-1 …; assay: cross-linking + other: high-mass MALDI-MS; ligand-free (apo) GPCR, 5 µM, mixed with partner protein at various concentrations, 1 h at room temperature, BS(PEG)9 cross-linking, β-Gal as internal standard; 20 mM Hepes pH 7.5, 40 mM NaCl, 0.01% LMNG; Ka = 1/Kd
[3] = biological target: T1, thermostabilized turkey beta-1 …; assay: cross-linking + other: high-mass MALDI-MS; formation of β1AR•mGo with the titration of mGo, reading of EC50 (Graphpad); ligand state of β1AR not told for this curve
[4] = biological target: T1, thermostabilized turkey beta-1 …; assay: cross-linking + other: high-mass MALDI-MS; competition: Nb80 (0 to 13.3 µM) added to iso-β1AR (2.5 µM) and mGo (3.0 µM), 1 h at room temperature, BS(PEG)9 cross-linking, β-Gal as internal standard; read-out β1AR•mGo formation
[5] = biological target: T2, thermostabilized turkey beta-1 adrenergic receptor (Meleagris gallopavo (turkey), stabilised); assay: cross-linking; competition: 2.5 μM β1AR, 3.0 μM mGo, increasing concentrations of Nb80; BS(PEG)9, high-mass MALDI-MS
T2 construct: beta-1 adrenergic receptor, turkey, thermostabilized, truncated at the C terminus and intracellular loop 3; Not treated with kinases; Small-molecule ligand states are told apart by the assay; also called β1AR; apo-β1AR; source: purified
T2 sequence (P07700 other isoform, or with tags, fused parts or gaps, change not shown): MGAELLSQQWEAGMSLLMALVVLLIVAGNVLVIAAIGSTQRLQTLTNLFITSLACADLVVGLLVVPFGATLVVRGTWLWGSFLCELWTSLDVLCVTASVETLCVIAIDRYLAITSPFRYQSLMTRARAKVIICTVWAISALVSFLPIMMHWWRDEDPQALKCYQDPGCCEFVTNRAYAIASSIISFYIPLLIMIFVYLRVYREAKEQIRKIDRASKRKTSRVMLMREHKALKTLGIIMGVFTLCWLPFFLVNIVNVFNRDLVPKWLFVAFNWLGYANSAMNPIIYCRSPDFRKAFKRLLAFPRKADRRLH

[6] = biological target: T2, thermostabilized turkey beta-1 …; assay: cross-linking; Kd by titrating the partner protein against isoprenaline-bound β1AR; 20 mM Hepes pH 7.5, 40 mM NaCl, 0.01% lauryl maltose neopentyl glycol; BS(PEG)9, high-mass MALDI-MS, normalised to β-galactosidase

| Binder | Ka [1] [M⁻¹] | other results |
| --- | --- | --- |
| B1 | 810000 | – |
| B2 | 2.86e+06 | – |
| B3 | 620000 | – |
| B4 | 4e+06 | Ka [2]: 4e+06 M⁻¹; EC50 [3]: 1580 nM |
| B5 | 4.76e+06 | IC50 [4]: 4610 nM |
| B6 | – | Ki [5]: 1570 ± 240 nM; Kd [6]: 210 nM |
| B7 | 4.17e+06 | Ka [2]: 3.57e+06 M⁻¹ |
